Drawing on patent publication US20240301031A1 (JIANGSU HENGRUI PHARMACEUTICALS, published 2024), this text covers EC50 and IC50 for 20 molecules.

Residue numbers refer to the chain shown, from its start.

The labels stand for the following.
B1: TACI-9-1Fc (Fc fusion)
chain: STSCRKEQGKFYDHLLRDCISCASICGQHPKQCAYFCENKLDKTHTCPPCPAPEAEGAPSVFLFPPKPKDTLMISRTPEVTCVVVDVSHEDPEVKFNWYVDGVEVHNAKTKPREEQYNSTYRVVSVLTVLHQDWLNGKEYKCKVSNKALPSSIEKTISKAKGQPREPQVYTLPPSRDELTKNQVSLTCLVKGFYPSDIAVEWESNGQPENNYKTTPPVLDSDGSFFLYSKLTVDKSRWQQGNVFSCSVMHEALHNHYTQKSLSLSPGK
notes: two identical polypeptides
B2: TACI-9-12Fc (Fc fusion)
chain: B1 chain with Y35A
notes: two identical polypeptides
B3: TACI-9-6Fc (Fc fusion)
chain: B1 chain with T2R, D18T
notes: two identical polypeptides
B4: TACI-9-4Fc (Fc fusion)
chain: B1 chain with T2L, K6Q
notes: two identical polypeptides
B5: TACI-9-11Fc (Fc fusion)
chain: B1 chain with T2L, R5S, K6E, K10E
notes: two identical polypeptides
B6: TACI-9-8Fc (Fc fusion)
chain: B1 chain with T2L, Y35A
notes: two identical polypeptides
B7: TACI-9-2Fc (Fc fusion)
chain: B1 chain with T2L, R5S
notes: two identical polypeptides
B8: TACI-9-5Fc (Fc fusion)
chain: B1 chain with T2L, K10E
notes: two identical polypeptides
B9: TACI-9-3Fc (Fc fusion)
chain: B1 chain with T2L, K6E
notes: two identical polypeptides
B10: TACI-9-7Fc (Fc fusion)
chain: B1 chain with T2R, D18A
notes: two identical polypeptides
B11: TACI-9-9Fc (Fc fusion)
chain: B1 chain with T2R, D18T, Y35R
notes: two identical polypeptides
B12: TACI-9-13Fc (Fc fusion)
chain: B1 chain with F36Y
notes: two identical polypeptides
B13: TACI-2 Fc (Fc fusion)
chain: SGLGRSRKGGKSRVDQEERFPQGLWTGVAMRSCPEEQYWDPLLGTCMSCKTICNHQSQRTCAAFCRSLSCRKEQGKFYDHLLRDCISCASICGQHPKQCAYFCENKLRSPVNLPPELRKQRSGEVENNSDNSGDKTHTCPPCPAPEAEGAPSVFLFPPKPKDTLMISRTPEVTCVVVDVSHEDPEVKFNWYVDGVEVHNAKTKPREEQYNSTYRVVSVLTVLHQDWLNGKEYKCKVSNKALPSSIEKTISKAKGQPREPQVYTLPPSRDELTKNQVSLTCLVKGFYPSDIAVEWESNGQPENNYKTTPPVLDSDGSFFLYSKLTVDKSRWQQGNVFSCSVMHEALHNHYTQKSLSLSPGK
notes: two identical polypeptides
B14: TACI-4 Fc (Fc fusion)
chain: GGRSRVDQEERFPQGLWTGVAMRSCPEEQYWDPLLGTCMSCKTICNHQSQRTCAAFCRSLSCRKEQGKFYDHLLRDCISCASICGQHPKQCAYFCENKLRSPVNLPPELRKQRSGEVENNSDNSGKYQGLEHRGSEASPALPGLKLSADQVALVYSDKTHTCPPCPAPEAEGAPSVFLFPPKPKDTLMISRTPEVTCVVVDVSHEDPEVKFNWYVDGVEVHNAKTKPREEQYNSTYRVVSVLTVLHQDWLNGKEYKCKVSNKALPSSIEKTISKAKGQPREPQVYTLPPSRDELTKNQVSLTCLVKGFYPSDIAVEWESNGQPENNYKTTPPVLDSDGSFFLYSKLTVDKSRWQQGNVFSCSVMHEALHNHYTQKSLSLSPGK
notes: two identical polypeptides
B15: TACI-5 Fc (Fc fusion)
chain: GGRSRVDQEERFPQGLWTGVAMRSCPEEQYWDPLLGTCMSCKTICNHQSQRTCAAFCRSLSCRKEQGKFYDHLLRDCISCASICGQHPKQCAYFCENKLRSPVNLPPELRKQRSGEVENNSDNSGDKTHTCPPCPAPEAEGAPSVFLFPPKPKDTLMISRTPEVTCVVVDVSHEDPEVKFNWYVDGVEVHNAKTKPREEQYNSTYRVVSVLTVLHQDWLNGKEYKCKVSNKALPSSIEKTISKAKGQPREPQVYTLPPSRDELTKNQVSLTCLVKGFYPSDIAVEWESNGQPENNYKTTPPVLDSDGSFFLYSKLTVDKSRWQQGNVFSCSVMHEALHNHYTQKSLSLSPGK
notes: two identical polypeptides
B16: TACI-3 Fc (Fc fusion)
chain: SGLGRSRKGGKSRVDQEERFPQGLWTGVAMRSCPEEQYWDPLLGTCMSCKTICNHQSQRTCAAFCRSLSCRKEQGKFYDHLLRDCISCASICGQHPKQCAYFCENKLRSPVNLPPELRKQRSGEVEDKTHTCPPCPAPEAEGAPSVFLFPPKPKDTLMISRTPEVTCVVVDVSHEDPEVKFNWYVDGVEVHNAKTKPREEQYNSTYRVVSVLTVLHQDWLNGKEYKCKVSNKALPSSIEKTISKAKGQPREPQVYTLPPSRDELTKNQVSLTCLVKGFYPSDIAVEWESNGQPENNYKTTPPVLDSDGSFFLYSKLTVDKSRWQQGNVFSCSVMHEALHNHYTQKSLSLSPGK
notes: two identical polypeptides
B17: TACI-1 Fc (Fc fusion)
chain: SGLGRSRKGGKSRVDQEERFPQGLWTGVAMRSCPEEQYWDPLLGTCMSCKTICNHQSQRTCAAFCRSLSCRKEQGKFYDHLLRDCISCASICGQHPKQCAYFCENKLRSPVNLPPELRKQRSGEVEQNSDNSGKYQGLEHRGSEASPALPGLKLSADQVALVYSDKTHTCPPCPAPEAEGAPSVFLFPPKPKDTLMISRTPEVTCVVVDVSHEDPEVKFNWYVDGVEVHNAKTKPREEQYNSTYRVVSVLTVLHQDWLNGKEYKCKVSNKALPSSIEKTISKAKGQPREPQVYTLPPSRDELTKNQVSLTCLVKGFYPSDIAVEWESNGQPENNYKTTPPVLDSDGSFFLYSKLTVDKSRWQQGNVFSCSVMHEALHNHYTQKSLSLSPGK
notes: two identical polypeptides
B18: TACI-7 Fc (Fc fusion)
chain: FPQGLWTGVAMRSCPEEQYWDPLLGTCMSCKTICNHQSQRTCAAFCRSLSCRKEQGKFYDHLLRDCISCASICGQHPKQCAYFCENKLRSPVNLPPDKTHTCPPCPAPEAEGAPSVFLFPPKPKDTLMISRTPEVTCVVVDVSHEDPEVKFNWYVDGVEVHNAKTKPREEQYNSTYRVVSVLTVLHQDWLNGKEYKCKVSNKALPSSIEKTISKAKGQPREPQVYTLPPSRDELTKNQVSLTCLVKGFYPSDIAVEWESNGQPENNYKTTPPVLDSDGSFFLYSKLTVDKSRWQQGNVFSCSVMHEALHNHYTQKSLSLSPGK
notes: two identical polypeptides
B19: TACI-8 Fc (Fc fusion)
chain: SLSCRKEQGKFYDHLLRDCISCASICGQHPKQCAYFCENKLRSPVNLPPELRKQRSGEVENNSDNSGKYQGLEHRGSEASPALPGLKLSADQVALVYSDKTHTCPPCPAPEAEGAPSVFLFPPKPKDTLMISRTPEVTCVVVDVSHEDPEVKFNWYVDGVEVHNAKTKPREEQYNSTYRVVSVLTVLHQDWLNGKEYKCKVSNKALPSSIEKTISKAKGQPREPQVYTLPPSRDELTKNQVSLTCLVKGFYPSDIAVEWESNGQPENNYKTTPPVLDSDGSFFLYSKLTVDKSRWQQGNVFSCSVMHEALHNHYTQKSLSLSPGK
notes: two identical polypeptides
B20: TACI-6 Fc (Fc fusion)
chain: GGRSRVDQEERFPQGLWTGVAMRSCPEEQYWDPLLGTCMSCKTICNHQSQRTCAAFCRSLSCRKEQGKFYDHLLRDCISCASICGQHPKQCAYFCENKLRSPVNLPPELRKQRSGEVEDKTHTCPPCPAPEAEGAPSVFLFPPKPKDTLMISRTPEVTCVVVDVSHEDPEVKFNWYVDGVEVHNAKTKPREEQYNSTYRVVSVLTVLHQDWLNGKEYKCKVSNKALPSSIEKTISKAKGQPREPQVYTLPPSRDELTKNQVSLTCLVKGFYPSDIAVEWESNGQPENNYKTTPPVLDSDGSFFLYSKLTVDKSRWQQGNVFSCSVMHEALHNHYTQKSLSLSPGK
notes: two identical polypeptides

The first assay addresses T1, human BAFF (10056-HNCH, Sino biological) (human, UniProt Q9Y275 134-285).
T1 construct: Bought protein
The assay is described as follows: ELISA, BAFF coated, fusion protein titrated. The procedure:
The binding activity of the antibodies or fusion proteins for BAFF, APRIL, and IL-12/23 p40 was assayed by the ELISA method (coating an antigen protein). The specific procedures were as follows:
A BAFF (Sino biological, 10056-HNCH), APRIL (R&D Systems, 5860-AP-010/CF), or IL-12/23 p40 (Sino biological, 10052-H08H) protein was diluted to 1 μg/mL with a PBS (BasalMedia, B320) buffer at pH 7.4, and added to a 96-well microplate (Corning, 3590) at 100 μL/well. The plate was incubated at 4° C. overnight. After the liquid was discarded, 300 μL of 5% skim milk (BD, 232100) diluted with PBS was added to each well for blocking, and the plate was incubated at 37° C. for 2 h. After the blocking was completed, the blocking solution was discarded, and the plate was washed 3 times with a PBST buffer (PBS at pH 7.4 containing 0.1% tween-20). 100 μL of test antibody or fusion protein solution diluted in a gradient was added to each well, and the plate was incubated at 37° C. for 1 h. After the incubation was completed, the plate was washed 3 times with PBST. […] The plate was washed 3 times with PBST. 100 μL of TMB chromogenic substrate (KPL, 5120-0077) was added to each well, and the plate was incubated at room temperature for 10-15 min. The reaction was stopped by adding 50 μL of 1 M H₂SO₄ to each well. The plate was read for absorbance values at 450 nm on a microplate reader, the binding curves of the antibodies to an antigen were fitted with software, and the EC₅₀ values were calculated.
A general note: ELISA stands for enzyme-linked immunosorbent assay.
The term EC50 denotes the concentration that produces a half-maximal response. Low readings indicate greater potency, high ones weaker potency. The molecule B1 yielded an EC50 of 0.382 nM.

As for B2, the EC50 stood at 0.122 nM.

On to B3, for which a half-maximal response (EC50) required 0.367 nM.

B4 registered an EC50 of 0.469 nM.

As to B5, a half-maximal effect (EC50) was put at 0.195 nM.

The molecule B6 gave a 50% effective concentration (EC50) of 0.2 nM.

Turning to B7, a half-maximal response (EC50) required 0.279 nM.

B8 registered a concentration giving a half-maximal response (EC50) of 0.146 nM.

The molecule B9 yielded an EC50 of 0.265 nM.

The molecule B10 gave an EC50 of 0.727 nM.

Molecule B11 displayed a concentration for a half-maximal effect (EC50) of 0.937 nM.

B12 returned a concentration for a half-maximal effect (EC50) of 0.433 nM.

The target of another assay is T1, human BAFF (10056-HNCH, Sino biological). Description: competition ELISA: biotin-labeled BAFF to coated BAFF-R. The procedure: The blocking activity of the antibodies and the fusion proteins for receptors and ligands such as BAFF/BAFF-R, BAFF/BCMA, BAFF/TACI, APRIL/BCMA, APRIL/TACI, and p40/IL-12R1 was assayed by the ELISA method. The specific procedures were as follows:
A receptor protein was diluted to 2 μg/mL with PBS at pH 7.4 (BasalMedia, B320) and added to a 96-well microplate (Corning, 3590) at 100 μL/well. The plate was incubated at 4° C. overnight. After the liquid was discarded, 200 μL of 1% Casein blocking solution (Thermo, 37528) was added to each well for blocking, and the plate was incubated at 37° C. for 2 h. After the blocking was completed, the blocking solution was discarded, and the plate was washed 3 times with a PBST buffer (PBS at pH 7.4 containing 0.1% tween-20) for later use. A biotin-labeled ligand protein at a fixed concentration was mixed with the antibody or fusion protein diluted in gradient, pre-incubated at 37° C. for 30 min, and added to a blocked microplate. The plate was incubated at 37° C. for 1.5 h. After the incubation was completed, the plate was washed 3 times with PBST. 100 μL of streptavidin-HRP (Invitrogen, 434323, diluted at a ratio of 1:4000) was added to each well, and the plate was incubated at 37° C. for 1 h. The supernatant was removed, and the plate was washed 3 times with PBST. 100 μL of TMB chromogenic substrate (KPL, 5120-0077) was added to each well, and the plate was incubated at room temperature for 10-15 min. The reaction was stopped by adding 50 μL of 1 M H₂SO₄ to each well. The plate was read for absorbance values at 450 nm on a microplate reader, the curves for the inhibition of the binding of the ligands to the receptors were fitted with software, and the IC₅₀ values were calculated.
In general, IC50 refers to the concentration at which inhibition is half-maximal. As to B13, the IC50 was 42.9 nM.

For the molecule B14, the 50% inhibitory concentration (IC50) turned out to be 33.5 nM.

As for B15, the IC50 was determined as 25.4 nM.

As for B16, the 50% inhibitory concentration (IC50) is 826 nM.

Turning to B17, the half-maximal inhibitory concentration (IC50) was 44.7 nM.

Take B18: the IC50 worked out at 27.9 nM.

Turning to B19, the half-inhibitory concentration (IC50) came out at 22.5 nM.

For B20, the concentration for half-maximal inhibition (IC50) was determined as 18.5 nM.
